Columns and labels:
[1] = target: T1, mouse neuropilin-2(a5), myc-tagged, expressed in COS-7 cells (mouse, UniProt O35375 21-931); test: AP histochemistry on transfected COS cells
T1 construct: also called a5 isoform of neuropilin-2; SR2(a)5
T1 sequence: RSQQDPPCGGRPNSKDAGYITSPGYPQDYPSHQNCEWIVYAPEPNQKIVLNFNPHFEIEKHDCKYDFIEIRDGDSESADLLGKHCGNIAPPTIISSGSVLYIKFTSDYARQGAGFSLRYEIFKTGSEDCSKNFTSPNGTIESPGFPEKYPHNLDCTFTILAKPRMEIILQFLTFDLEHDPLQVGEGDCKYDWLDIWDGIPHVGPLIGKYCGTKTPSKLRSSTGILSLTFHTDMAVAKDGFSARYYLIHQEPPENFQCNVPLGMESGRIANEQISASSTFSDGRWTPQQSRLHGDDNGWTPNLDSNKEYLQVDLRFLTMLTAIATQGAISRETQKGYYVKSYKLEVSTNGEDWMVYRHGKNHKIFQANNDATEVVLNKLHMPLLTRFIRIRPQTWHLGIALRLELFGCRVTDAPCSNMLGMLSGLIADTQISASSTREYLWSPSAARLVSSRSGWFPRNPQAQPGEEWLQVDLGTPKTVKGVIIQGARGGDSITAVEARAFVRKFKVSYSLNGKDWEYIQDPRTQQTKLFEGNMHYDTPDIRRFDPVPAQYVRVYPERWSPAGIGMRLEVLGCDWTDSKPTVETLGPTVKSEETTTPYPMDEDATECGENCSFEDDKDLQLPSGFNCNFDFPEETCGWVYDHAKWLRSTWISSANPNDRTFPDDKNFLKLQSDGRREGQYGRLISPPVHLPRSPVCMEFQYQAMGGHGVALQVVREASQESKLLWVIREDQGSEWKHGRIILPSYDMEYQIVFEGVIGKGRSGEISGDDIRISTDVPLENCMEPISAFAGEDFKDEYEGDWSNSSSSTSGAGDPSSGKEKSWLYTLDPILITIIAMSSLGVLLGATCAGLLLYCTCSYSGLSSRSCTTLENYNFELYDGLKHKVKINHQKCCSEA

[2] = target: T2, mouse neuropilin-2(a0), myc-tagged, expressed in COS-7 cells (mouse, UniProt O35375 21-931); test: AP histochemistry on transfected COS cells
T2 construct: also called SR2(a)0; m-npn-2
T2 sequence: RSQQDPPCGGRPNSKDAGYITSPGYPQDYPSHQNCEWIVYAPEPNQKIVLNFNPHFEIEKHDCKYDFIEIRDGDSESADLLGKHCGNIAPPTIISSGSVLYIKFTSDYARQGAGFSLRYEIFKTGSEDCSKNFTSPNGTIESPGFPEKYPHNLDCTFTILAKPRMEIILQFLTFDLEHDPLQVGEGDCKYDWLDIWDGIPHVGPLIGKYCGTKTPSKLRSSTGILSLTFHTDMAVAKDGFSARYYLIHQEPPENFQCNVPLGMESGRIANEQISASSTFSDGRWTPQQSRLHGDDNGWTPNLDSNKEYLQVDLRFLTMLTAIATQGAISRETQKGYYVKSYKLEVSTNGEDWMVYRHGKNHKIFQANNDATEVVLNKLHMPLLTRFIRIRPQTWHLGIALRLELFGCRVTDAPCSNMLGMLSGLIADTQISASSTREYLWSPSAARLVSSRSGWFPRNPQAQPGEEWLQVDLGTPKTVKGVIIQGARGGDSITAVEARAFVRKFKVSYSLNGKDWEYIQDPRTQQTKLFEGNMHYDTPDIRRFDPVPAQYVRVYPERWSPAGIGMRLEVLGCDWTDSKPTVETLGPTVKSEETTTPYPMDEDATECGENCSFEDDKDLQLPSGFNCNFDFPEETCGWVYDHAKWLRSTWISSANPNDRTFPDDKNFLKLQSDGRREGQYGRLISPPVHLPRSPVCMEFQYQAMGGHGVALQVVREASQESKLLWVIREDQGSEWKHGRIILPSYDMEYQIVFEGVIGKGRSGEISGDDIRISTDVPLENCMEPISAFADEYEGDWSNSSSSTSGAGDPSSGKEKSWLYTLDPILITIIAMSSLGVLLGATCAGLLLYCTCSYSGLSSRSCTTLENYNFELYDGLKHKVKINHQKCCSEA

[3] = target: T3, mouse neuropilin-2(a22), myc-tagged, expressed in COS-7 cells (mouse, UniProt O35375 21-931); test: AP histochemistry on transfected COS cells
T3 construct: also called SR2(a)22
T3 sequence: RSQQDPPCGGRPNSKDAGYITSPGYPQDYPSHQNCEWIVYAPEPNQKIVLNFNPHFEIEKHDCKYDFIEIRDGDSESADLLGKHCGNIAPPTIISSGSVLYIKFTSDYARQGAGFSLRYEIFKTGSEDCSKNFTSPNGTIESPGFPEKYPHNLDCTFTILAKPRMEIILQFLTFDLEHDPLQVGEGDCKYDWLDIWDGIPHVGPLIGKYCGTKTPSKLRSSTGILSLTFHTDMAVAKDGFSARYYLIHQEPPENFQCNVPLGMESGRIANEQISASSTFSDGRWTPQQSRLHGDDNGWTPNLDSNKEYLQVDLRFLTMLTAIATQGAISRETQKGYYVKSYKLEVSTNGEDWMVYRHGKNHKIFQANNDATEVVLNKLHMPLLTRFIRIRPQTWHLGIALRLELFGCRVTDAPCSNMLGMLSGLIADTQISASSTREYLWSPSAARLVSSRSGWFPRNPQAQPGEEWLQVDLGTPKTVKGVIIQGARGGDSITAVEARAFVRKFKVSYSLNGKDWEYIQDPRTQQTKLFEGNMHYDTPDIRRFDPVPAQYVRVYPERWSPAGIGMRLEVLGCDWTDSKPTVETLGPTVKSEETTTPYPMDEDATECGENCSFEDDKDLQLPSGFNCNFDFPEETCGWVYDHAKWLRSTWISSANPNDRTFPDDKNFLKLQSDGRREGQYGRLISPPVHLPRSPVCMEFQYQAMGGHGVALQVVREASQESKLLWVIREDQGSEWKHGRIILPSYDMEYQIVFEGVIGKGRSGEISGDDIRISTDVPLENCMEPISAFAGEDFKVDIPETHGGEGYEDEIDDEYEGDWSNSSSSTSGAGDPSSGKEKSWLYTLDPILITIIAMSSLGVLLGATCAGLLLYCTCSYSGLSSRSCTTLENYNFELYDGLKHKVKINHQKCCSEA

[4] = target: T4, rat semaphorin receptor 1 (rSR1), full length, expressed on cells (rat, UniProt Q9QWJ9 22-922); test: binding to transfected COS-7 cells
T4 construct: also called rat SR1; p28
T4 sequence: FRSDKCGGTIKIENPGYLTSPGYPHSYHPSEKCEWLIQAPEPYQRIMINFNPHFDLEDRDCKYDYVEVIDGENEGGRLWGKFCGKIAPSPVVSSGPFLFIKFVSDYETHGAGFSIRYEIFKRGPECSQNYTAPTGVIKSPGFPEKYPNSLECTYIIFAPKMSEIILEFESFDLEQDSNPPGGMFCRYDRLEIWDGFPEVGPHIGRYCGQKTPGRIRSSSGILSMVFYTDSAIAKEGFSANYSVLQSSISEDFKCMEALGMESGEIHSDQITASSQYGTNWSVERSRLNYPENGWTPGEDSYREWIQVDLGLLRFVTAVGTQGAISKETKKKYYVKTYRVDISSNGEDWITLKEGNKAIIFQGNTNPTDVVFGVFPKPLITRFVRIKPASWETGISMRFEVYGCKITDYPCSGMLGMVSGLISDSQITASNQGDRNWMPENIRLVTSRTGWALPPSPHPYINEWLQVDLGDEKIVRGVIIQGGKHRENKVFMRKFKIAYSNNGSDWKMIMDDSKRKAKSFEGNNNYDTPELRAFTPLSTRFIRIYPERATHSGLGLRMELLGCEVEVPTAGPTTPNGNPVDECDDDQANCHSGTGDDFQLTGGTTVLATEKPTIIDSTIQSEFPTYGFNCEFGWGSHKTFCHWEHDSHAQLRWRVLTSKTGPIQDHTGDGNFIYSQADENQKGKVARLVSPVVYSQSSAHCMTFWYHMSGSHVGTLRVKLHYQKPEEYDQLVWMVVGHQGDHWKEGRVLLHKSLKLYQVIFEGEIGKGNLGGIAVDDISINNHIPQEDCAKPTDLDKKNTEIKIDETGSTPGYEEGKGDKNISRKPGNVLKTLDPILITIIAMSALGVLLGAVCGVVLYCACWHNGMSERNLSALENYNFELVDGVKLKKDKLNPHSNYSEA

Measured: binding result

B1: alkaline phosphatase (AP) alone (enzyme, UniProt P05187 23-511, looked up)
chain: IIPVEEENPDFWNREAAEALGAAKKLQPAQTAAKNLIIFLGDGMGVSTVTAARILKGQKKDKLGPEIPLAMDRFPYVALSKTYNVDKHVPDSGATATAYLCGVKGNFQTIGLSAAARFNQCNTTRGNEVISVMNRAKKAGKSVGVVTTTRVQHASPAGTYAHTVNRNWYSDADVPASARQEGCQDIATQLISNMDIDVILGGGRKYMFRMGTPDPEYPDDYSQGGTRLDGKNLVQEWLAKRQGARYVWNRTELMQASLDPSVTHLMGLFEPGDMKYEIHRDSTLDPSLMEMTEAALRLLSRNPRGFFLFVEGGRIDHGHHESRAYRALTETIMFDDAIERAGQLTSEEDTLSLVTADHSHVFSFGGYPLRGSSIFGLAPGKARDRKAYTVLLYGNGPGYVLKDGARPDVTESESGSPEYRQQSAVPLDEETHAGEDVAVFARGPQAHLVHGVQEQTFIAHVMAFAACLEPYTACDLAPPAGTTDAAHPG
notes: Control protein; also called alkaline phosphatase protein
no binding: all assays above
